Data as given in paper PMC5052687 (2016).

B1: MCvar1 PfEMP1 CIDRα2.8 domain (residues 576-745, C626S) [Plasmodium falciparum] / human CD36 ectodomain (residues 35-439) with C-terminal BAP tag, biotinylated [modified: biotin on the BAP tag (in vitro, BirA ligase); biotin on the BAP tag … (parent complex)
chain 1: EDKIMSYNAFFWMWVHDMLIDSIKWRDEHGRCINKDKGKTCIKGCNKKCISFQKWVEQKKTEWGKIKDHFRKQKDIPKDWTHDDFLQTLLMKDLLLEIIQDTYGDANEIKRIEALLEQAGVGGIDFAALAGLYTKGFVAEKDTTIDKLLQHEQKEADKCLKTHTDDTCPP
chain 2: QKTIKKQVVLEEGTIAFKNWVKTGTEVYRQFWIFDVQNPQEVMMNSSNIQVKQRGPYTYRVRFLAKENVTQDAEDNTVSFLQPNGAIFEPSLSVGTEADNFTVLNLAVAAASHIYQNQFVQMILNSLINKSKSSMFQVRTLRELLWGYRDPFLSLVPYPVTTTVGLFYPYNNTADGVYKVFNGKDNISKVAIIDTYKGKRNLSYWESHCDMINGTDAASFPPFVEKSQVLQFFSSDICRSIYAVFESDVNLKGIPVYRFVLPSKAFASPVENPDNYCFCTEKIISKNCTSYGVLDISKCKEGRPVYISLPHFLYASPDVSEPIDGLNPNEEEHRTYLDIEPITGFTLQFAKRLQVNLLVKPSEKIQVLKNLKRNYIVPILWLNETGTIGDEKANMFRSQVTGKIN

Variants of: B1
Test: SPR; plateau of the top sensorgram (highest analyte concentration of the series); concentrations not given; parent: 62; read off a plot
Work on chain 1 D75A yielded a response of about 20 RU.
